Measurements as given in publication PMC8964682, “Structural and biochemical characterization of in vivo assembled Lactococcus lactis CRISPR-Csm complex” (Communications Biology, 2022).

B1: Lactococcus lactis Csm2 with N-terminal His6-tag, subunit of the LlCsm complex (natural protein)
chain: TELKIGNEKVNSTNFGDFAEKAIRGINHKPFVNSKGGEQKITTSKIRGILELVNKVYNRVINTNDVELSENILADIAYIKVKIAYESGREPVVKDFIQRTAFTAAITDVMNQRTRESFLLFARYVESLIAYFKFYGGKD
notes: Csm2 of the plasmid-encoded (pKLM) Type III-A CRISPR-Cas system of Lactococcus lactis; The csm2 gene encoded the His6-tag in all variants of LlCsm (wild type and Csm1 D14N / Csm3 D30A); Removal of the tag is not mentioned; also called LlCsm2; not shown: His6, N-terminal, kept
B2: Lactococcus lactis Csm3 Asp30Ala, subunit of the LlCsm (D14N)1(D30A)3 complex (natural protein)
chain: MKLVIEGTIVLKTGMHIGGSSDFSAIGAVASPVVRDTLTRLPLIPGSSLKGKMRYLLAKELNNGILLNEPNNDQDEILRLFGSSEKDKIRRARLKFNDIKLSNLAELETFNVSSTEVKFENTINRKTAVANPRQIERVIAGSKFDFEIFYNLDDIKEVEKDFENIKQGFDLLEFDYLGGHGTRGSGRIAFENLSVITAVGNFEKINTLNEILGA
notes: Csm3 of the plasmid-encoded (pKLM) Type III-A CRISPR-Cas system of Lactococcus lactis, with the RNase-site mutation D30A; Csm3.1 is the Csm3 copy closest to Csm4; There are four copies in CTR-43, NTR and apo, and three in CTR-32; also called Csm3.1; Csm3.2

What was measured:
[1] = target: the molecule itself; experiment: cryo-EM structure; co-purified LlCsm (Csm1 D14N, Csm3 D30A)-crRNA incubated with CTR at 1:2, 37 °C, 60 min, then SEC; no ATP; two classes, CTR-43 (3.0 Å) and CTR-32 (3.3 Å)
[2] = target: the molecule itself; experiment: cryo-EM structure; co-purified LlCsm (Csm1 D14N, Csm3 D30A)-crRNA incubated with NTR at 1:2, 37 °C, 60 min, then SEC; 3.4 Å

Protein | stoichiometry N [1] | stoichiometry N [2]
B1 | 2 | 3
B2 | 3 | 4
